The assay addresses α5β1 integrin receptor on primary mesangial cells. As to the kind of experiment: cell-based or functional assay.

From patent publication US20140194361A1, “Vault Agents for Treating Chronic Kidney Disease” (priority 2010, published 2014) come the findings set out here.

“D-vault (CGRGDSP peptide-INT packaged in purified vault)” gave an inhibition of attachment of MC to fibronectin compared to untreated MC of 1.7 fold.
